According to patent publication CN113621063A (JIANGSU QUANXIN BIOMEDICAL CO LTD; JIANGSU SAIFUSHI …, dated 2021):

T1: 人IFNAR1 (on HEK Blue IFNα/β cells, Daudi cells, human whole blood cells) (human, UniProt P17181 28-557)
T1 sequence (looked up): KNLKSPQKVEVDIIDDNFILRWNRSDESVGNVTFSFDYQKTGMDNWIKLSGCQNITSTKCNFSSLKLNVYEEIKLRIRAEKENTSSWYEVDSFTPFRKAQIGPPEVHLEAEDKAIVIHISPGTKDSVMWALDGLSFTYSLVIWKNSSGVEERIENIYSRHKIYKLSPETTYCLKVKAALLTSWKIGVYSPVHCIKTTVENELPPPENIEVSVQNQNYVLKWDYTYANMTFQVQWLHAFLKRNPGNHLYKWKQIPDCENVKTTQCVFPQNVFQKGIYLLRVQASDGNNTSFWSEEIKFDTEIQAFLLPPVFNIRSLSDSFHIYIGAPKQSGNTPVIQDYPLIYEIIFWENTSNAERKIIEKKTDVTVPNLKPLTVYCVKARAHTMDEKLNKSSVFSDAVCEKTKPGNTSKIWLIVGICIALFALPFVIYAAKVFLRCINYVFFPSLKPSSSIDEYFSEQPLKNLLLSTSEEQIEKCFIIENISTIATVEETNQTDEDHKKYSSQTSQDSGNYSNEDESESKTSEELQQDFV

T2: 人干扰素α受体1(IFNAR1) (human, UniProt P17181 28-436)
T2 construct: Soluble antigen flowed over the captured antibody in the Biacore assay; also called 人IFNAR1; Human Interferon alpha/beta Receptor 1
T2 sequence: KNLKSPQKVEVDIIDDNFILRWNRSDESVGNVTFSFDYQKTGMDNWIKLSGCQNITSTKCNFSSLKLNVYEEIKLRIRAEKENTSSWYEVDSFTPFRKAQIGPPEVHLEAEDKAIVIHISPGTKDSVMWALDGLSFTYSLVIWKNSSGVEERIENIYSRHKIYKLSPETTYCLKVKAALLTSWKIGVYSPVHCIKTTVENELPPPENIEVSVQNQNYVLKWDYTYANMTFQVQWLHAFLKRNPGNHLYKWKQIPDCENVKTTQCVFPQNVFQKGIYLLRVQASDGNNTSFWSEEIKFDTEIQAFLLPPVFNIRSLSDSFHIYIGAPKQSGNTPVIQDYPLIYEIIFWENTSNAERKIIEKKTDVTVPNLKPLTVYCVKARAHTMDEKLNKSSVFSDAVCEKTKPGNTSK

B1: QX006N(HZD1203-45-IgG4.1) (antibody, V domains shown)
VH: EVQLVESGGGLVQPGGSLRLSCAASGFSLSSYYMTWVRQAPGKGLEWVSVINVYGGTYYASWAKGRFTISRDNSKNTLYLQMNSLRAEDTAVYYCAREDVAVYMAIDLWGQGTLVTVSS
VL: AIQMTQSPSSLSASVGDRVTITCQASQSISNQLSWYQQKPGKAPKLLIYDASSLASGVPSRFSGSRSGTKFTLTISSLQPEDFATYYCLGIYGDGADDGIAFGGGTKVEIK
notes: Humanized rabbit clone 1203#; The human IgG1 constant region was replaced by human IgG4 (plasmid pHZDCH-362VH-Hu6-IgG4.1) and the light chain plasmid is pHZDCK (kappa); also called 抗人干扰素α受体1单克隆抗体QX006N; 重组人源化抗IFNAR1单克隆抗体
B2: Anifrolumab (antibody, V domains shown)
VH: EVQLVQSGAEVKKPGESLKISCKGSGYIFTNYWIAWVRQMPGKGLESMGIIYPGDSDIRYSPSFQGQVTISADKSITTAYLQWSSLKASDTAMYYCARHDIEGFDYWGRGTLVTVSS
VL: EIVLTQSPGTLSLSPGERATLSCRASQSVSSSFFAWYQQKPGQAPRLLIYGASSRATGIPDRLSGSGSGTDFTLTITRLEPEDFAVYYCQQYDSSAITFGQGTRLEIKR

Tests used:
[1] = biological target: T1, 人IFNAR1 (on HEK Blue IFNα/β cells, …); assay: cell-based or functional assay
人干扰素α受体1(IFNAR1) = biological target: T2, 人干扰素α受体1(IFNAR1); assay: SPR, Biacore T200, antibody captured on Protein A chip, antigen in flow, 25℃, 1:1 model, mean of three runs

Binder | 抑制干扰素诱导的Daudi细胞增殖活性的EC50 [1] | 抑制干扰素诱导的HEK Blue IFNα/β细胞中1/2磷酸化活性的IC50 [1] | 抑制干扰素诱导的全血释放CXCL10/IP10活性的IC50 [1] | Kd (人干扰素α受体1(IFNAR1)) | koff (人干扰素α受体1(IFNAR1)) | kon (人干扰素α受体1(IFNAR1))
B1 | 29.9 ng/mL | 5.23 ng/mL | 698 ng/mL | 0.108 nM | 3.76e-05 s⁻¹ | 347000 M⁻¹ s⁻¹
B2 | 31.7 ng/mL | 4.43 ng/mL | 562 ng/mL |  |  | 
